Molecular target: Campylobacter jejuni resistance enhancing CmeB (RE-CmeB) multidrug efflux pump (C. jejuni)
Experiment: cryo-EM structure; single-particle cryo-EM of 20 uM RE-CmeB in lipidic nanodiscs (MSP 1E3D1, E. coli total extract lipid; 20 mM Tris-HCl pH 7.5, 100 mM NaCl); apo, with fortuitous hydrolyzed ampicillin, or incubated with 1 mM Cip, Ery or Chl for 2 h on ice

Work on “Campylobacter jejuni resistance enhancing CmeB (RE-CmeB) multidrug efflux pump (natural protein)” yielded a stoichiometry N of 3.

Reference: publication PMC10434076
